Consider four molecules from PMC5748111.

Where only a bound is given, the exact number is not on record here.

The experiment deals with CaMKII (human CaMKIIδ, form used for the solution kinetics not stated) (human) (UniProt Q13557).
Chain of UniProt Q13557 (Q13557 1-478, stated change not applied): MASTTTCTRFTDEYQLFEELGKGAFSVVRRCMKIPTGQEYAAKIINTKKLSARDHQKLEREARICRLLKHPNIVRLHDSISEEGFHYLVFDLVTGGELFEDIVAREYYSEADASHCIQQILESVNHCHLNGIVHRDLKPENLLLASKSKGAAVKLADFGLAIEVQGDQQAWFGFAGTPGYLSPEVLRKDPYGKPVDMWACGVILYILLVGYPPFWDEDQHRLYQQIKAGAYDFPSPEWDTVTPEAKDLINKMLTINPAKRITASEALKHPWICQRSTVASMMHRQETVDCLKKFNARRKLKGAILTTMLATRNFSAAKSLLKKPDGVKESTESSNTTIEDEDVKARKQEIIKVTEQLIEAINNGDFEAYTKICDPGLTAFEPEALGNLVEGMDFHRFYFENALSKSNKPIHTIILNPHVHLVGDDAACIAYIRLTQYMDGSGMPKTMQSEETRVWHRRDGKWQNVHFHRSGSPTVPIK

B1: GluN2B_(S1303) peptide (peptide)
peptide: RNKLRRQHSYDTFVD
On to B1, for which the Km of peptide phosphorylation, standard solution kinetics came out at 4.6 µM.

B2: GluA1_(S849) peptide (peptide)
peptide: GFCLIPQQSINEAIR
On to B2, for which the Km of peptide phosphorylation, standard solution kinetics is > 1000 µM.

B3: Syntide peptide (peptide)
peptide: PLARTLSVAGLPGKK
In the case of B3, the Km of peptide phosphorylation, standard solution kinetics was found to be 43.5 µM.

B4: VimentinS83 peptide (peptide)
peptide: PGVRLLQDSVDFSLA
In the case of B4, the Km of peptide phosphorylation, standard solution kinetics is > 1000 µM.
